The results in this text go back to PMC6941876, “White Spot Syndrome Virus Establishes a Novel IE1/JNK/c-Jun Positive Feedback Loop to Drive Replication”.

For series [1], the target named is T1, rLvc-Jun (Litopenaeus vannamei, UniProt A0A0A7W5M9 1-293).
T1 chain: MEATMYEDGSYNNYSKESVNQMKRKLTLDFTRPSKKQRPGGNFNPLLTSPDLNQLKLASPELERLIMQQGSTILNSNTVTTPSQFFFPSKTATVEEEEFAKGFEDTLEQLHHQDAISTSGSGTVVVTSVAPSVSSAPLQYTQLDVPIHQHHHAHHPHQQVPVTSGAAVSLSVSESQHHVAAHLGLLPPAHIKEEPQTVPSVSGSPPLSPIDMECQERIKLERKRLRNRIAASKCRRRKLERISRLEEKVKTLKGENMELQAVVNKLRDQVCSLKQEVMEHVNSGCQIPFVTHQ
The experiment in a line: EMSA; EMSA with biotin-labeled probes; buffer, salt, pH and temperature not in the material. The following applies: protein: recombinant, tags: GST tag removed with enterokinase, chain copies: 0, blunt.

In series [2] the target is T1, rLvc-Jun. The experiment in a line: competition; 10-, 50-, 100-fold excess over biotin IE1-AP-1-1; EMSA with biotin-labeled probes; buffer, salt, pH and temperature not in the material. As to conditions: protein: recombinant; tags: GST tag removed with enterokinase; chain copies: 0; label: none; blunt.

B1: 249-AP-1 probe (dsDNA)
DNA 1: TAGGAATTTCGCTGACGTCAATAAACTGGTTT
DNA 2: AAACCAGTTTATTGACGTCAGCGAAATTCCTA
Turning to B1, the binding result in series [1] (label: biotin) was “binds”.

B2: 403-AP-1 probe (dsDNA)
DNA 1: ATTTCCAAGAATTTTGCTGACGTCAATGGACC
DNA 2: GGTCCATTGACGTCAGCAAAATTCTTGGAAAT
For B2, the binding result in series [1] (label: biotin) was “binds”.

B3: Mut-unBio-IE1-AP-1-1 (dsDNA)
DNA 1: GAAAATCGCTGTTCCCATCCTGTTAAGGAATT
DNA 2: AATTCCTTAACAGGATGGGAACAGCGATTTTC
B3: the binding result in series [2] is listed as “no binding”.

B4: 056-AP-1 probe (dsDNA)
DNA 1: GTACCAGATGTGAGTCAAACCGTTTCTGG
DNA 2: CCAGAAACGGTTTGACTCACATCTGGTAC
As for B4, the binding result in series [1] (label: biotin) was “binds”.

B5: IE1-AP-1-1 probe (dsDNA)
DNA 1: GAAAATGGCTGTTTGAATCATGTTAAGGAATT
DNA 2: AATTCCTTAACATGATTCAAACAGCCATTTTC
Regarding B5, the binding result in series [1] (label: biotin (probe)) is given as “binds”.

B6: IE1-AP-1-2 probe (dsDNA)
DNA 1: GGAATTTCCTTGTTACTCATTTATTCCTAGA
DNA 2: TCTAGGAATAAATGAGTAACAAGGAAATTCC
As for B6, in series [1] (label: biotin (probe)), the binding result is reported as “binds”.
